In the DeepSol protein solubility set:

assay: soluble on expression in E. coli; label from the status in PepcDB or PDB records

**Q.** For “MGSDKIHHHHHHMFTPRGFKFAGVHCKIKRKRKDLGIIFSEVPCVAAGVFTTNVVKAAPVIYDMEILKKNPNGIKAVVVNSGVANACTGEQGMINARRMAEKTAEELGVPVESVLVSSTGVIGVQLPMDKVENGIEEAARVLSNDPLPFAEAIMTTDTKVKMHSTKVMIDGKEITVLGIAKGSGMIHPNMATMLSFITTDAKISEEALKKLLKLSVDDSYNMIDVDGDTSTNDMVIVLANGLAGNTTIQPETDGFWKLYEAVHEVNQVLAEKIVEDGEGATKVMEVHVINAPDIKSARLIARSIVSSNLVKTAIYGEDANWGRVIAAAGYSGATFDPEKLDLFFESEAGRIKVAENGQGVSFDEEEAKKILSEKKIRIILDMKQGKETAKAWGCDLTEKYVEINGRYRT”, which “soluble on expression in E. coli” value is on record?
**A.** not soluble

**Q.** Which “soluble on expression in E. coli” value does the source give for “MRDVAIIGVKNTKFGELWERSLRDIVVEAGIGAIQDAGVSGKDIDALYIGNMSGGRFVEQEHIGALIADYSGLSRNLHVPATRVEAACASGGLALRQAIMAVASGYSEIVVAAGAEKMTDVGSEEASSALAAAADREWEGMAGATFPGLYAMIAKLHMHMYGTTGEQLAEVAVKNHKNGSFNPIAQYKNTITVDNVLNSIMVADPLHIFDCSPITDGASALVLAPAEIAHKYTDTPIYIKATAQASDTIALHDRRDITTLDATVMAAKRAYSMAKLTPEDIDLVEVHDCFTIAEICAIEDLGFAEKGKGGIVTENGETAIGGRIPVNTSGGLKACGHPVGATGIKQAVEIVTQLRGEAGKRQVEGAEYGMTHNVGGSGATAVVHIFSRGM” here?
**A.** not soluble

**Q.** With “QDSTSDLIPAPPLSKVPLQQNFQDNQFHGKWYQVGRAGNAALREDKDPQKMTAQIYELKEDKSYNVTAVRFRKKKCDYATMTFVPGSQPGEFTLGNIKSYPGLTSYLVRVVSTNYNQHAMVFFKKVSQNREYFSITLLGRTKELASELKENFIRFSKSLGLPENHIVFPVPIDQCIDGSAHHHHHH” as the sequence, how does the “soluble on expression in E. coli” value read?
**A.** soluble

**Q.** For “MSEKQINNFSLISRLFGNLFYRFPTDKVLADAFVWLQQEGLSQVWALDTDKESELALNSLQVKIDLNLLNEEYQKLFATNGKVMTAISAYGIDVEEFVNFRLVRNMPEVESADHFALLLLTASWLEDNSDSLVAQQEFFETFLLPCAAKFLTQVENQATLPFYRALALLTREILATMADELEEE”, which “soluble on expression in E. coli” value is on record?
**A.** soluble

**Q.** For “TIPISDKITLYIGRNSANNEKLTFGFAKPDDLWLHARGASGSHCVLKGATMRHTSEIQRAAEIAAWHSSAKHSELVPVICTQKKYLKK”, which “soluble on expression in E. coli” value is on record?
**A.** not soluble

**Q.** For “MNQTLLSDFGTPVERVERAIDALRNGRGVMVLDDESRENEGDMVFAAEAMTLEQMALTIRHGSGIVCLCITDERRQQLDLPMMVTHNSSQFQTAFTVTIEAAEGVTTGVSAADRLTTIRKAIADNAKPADLNRPGHVFPLRGQPGGVLSRRGHTEASIDLATLAGYKPAGVLCELTNDDGSMAHAPEVIAFAKLHDMPVVTIDDLAAYLQSRAKKAS”, which “soluble on expression in E. coli” value is on record?
**A.** not soluble

**Q.** Which “soluble on expression in E. coli” value does the source give for “SLRITRIRLYKTDLPYVDGSYGWGAGNAITVARASVVVIDTDAGLQGCGEFTPCGENYMIAHSEGVDAFARLAAPQLLGQDPRQVARMERLMDHLVQGHGYAKAPFDAAFWDILGQATGQPVWMLLGGKLCDGAPMYRVAPQRSEAETRAELARHRAAGYRQFQIKVGADWQSDIDRIRACLPLLEPGEKAMADANQGWRVDNAIRLARATRDLDYILEQPCRSYEECQQVRRVADQPMKLDECVTGLHMAQRIVADRGAEICCLKISNLGGLSKARRTRDFLIDNRMPVVAEDSWGGEIASAAVAHFAASTPEEFLINSTDLMNYNTRSTGLGGPTVHQGRLYASDTPGLGVTPDFNSLGAPVADWALP” here?
**A.** not soluble

**Q.** Which “soluble on expression in E. coli” value does the source give for “MGSDKIHHHHHHMEMRFFVLGAGSWGTVFAQMLHENGEEVILWARRKEIVDLINVSHTSPYVEESKITVRATNDLEEIKKEDILVIAIPVQYIREHLLRLPVKPSMVLNLSKGIEIKTGKRVSEIVEEILGCPYAVLSGPSHAEEVAKKLPTAVTLAGENSKELQKRISTEYFRVYTCEDVVGVEIAGALKNVIAIAAGILDGFGGWDNAKAALETRGIYEIARFGMFFGADQKTFMGLAGIGDLMVTCNSRYSRNRRFGELIARGFNPLKLLESSNQVVEGAFTVKAVMKIAKENKIDMPISEEVYRVVYEGKPPLQSMRDLMRRSLKDEFWASVVDSSL” here?
**A.** not soluble

**Q.** For “MGSDKIHHHHHHMNLRRDALQILKETSRTFYIPISLLPPGLQEAVASAYLCMRAIDEIEDHPEIDNATKAKLLRSISLTLQAGVDGFAVEAFFTGFNGYENTLEEVTLRIREWLLLAPETIAPRIWDATAAMSDRMAYWSERNWKIYTESDLDRYTFGVAGAVGLLLSDLWTWYDGTQTNRTQAIGFGRGLQAVNILRNHTEDLRRGVDFFPEGWSAENMQEYARRNLALAEAYTKGLPTGPALDFCQIPLTLANGTLDALANGKEKLSRSDVFALIEQIISVNMKAS”, which “soluble on expression in E. coli” value is on record?
**A.** not soluble

**Q.** With “MPPQPQIMVDLQMEQVMPNPDLKNIARLISQDPGLSGALLKLVNSPFFGLANRITSIQRAVNLLGSRSVINLINAQSIKGEMSDDTIVTLNRFWDTAQDVAMSCLSLAKRIGYESVDEAYALGLFHNCGIPLMLKRFPHYMAVLEEAYAAASDERRVVDTENRVLNTNHAVVGYYTARSWRLPEHVCEAIANHHNALSIFGDESARDTQLKNLLAILKMAEHICGSHRVLGNQPEDHEWNSIGALVLDYVGLTDYDFENLKGSILELGVGQGSY” as the sequence, how does the “soluble on expression in E. coli” value read?
**A.** not soluble

**Q.** With “HHMAQANFGVVGMAVMGKNLALNVESRGYTVAIYNRTTSKTEEVFKEHQDKNLVFTKTLEEFVGSLEKPRRIMLMVQAGAATDATIKSLLPLLDIGDILIDGGNTHFPDTMRRNAELADSGINFIGTGVSGGEKGALLGPSMMPGGQKEAYDLVAPIFEQIAAKAPQDGKPCVAYMGANGAGHYVKMVHNGIEYGDMQLIAESYDLLKRILGLSNAEIQAIFEEWNEGELDSYLIEITKEVLKRKDDEGEGYIVDKILDKAGNKGTGKWTSESALDLGVPLPLITESVFARYISTYKDERVKASKVLSGPALDFSGDKKEVIEKIRKALYFSKIMSYAQGFAQLRKASEEFDWDLPYGTIAQIWRAGCIIRAEFLQNITDAFDKDSELENLLLDDYFVDITKRYQEAVRDVVSLAVQAGTPIPTFTSAISYYDSYRSENLPANLIQAQRDYFGAHTYERTDKAGIFHYDWYTED” as the sequence, how does the “soluble on expression in E. coli” value read?
**A.** soluble

**Q.** Which “soluble on expression in E. coli” value does the source give for “YVSTDGDDIYVGKNNKQNDYLTNKKAKKTHTWLHTKDIPGSHVVIFNDAPSDTTIKEAAMLAGYFSKAGNSGQIPVDYTLIKNVHK” here?
**A.** not soluble

**Q.** For “MSIESIRNVIAKDMGEVDNVIQQKLHSQVALVRQVSEYIIHSGGKRLRPALVILAAGLFDYKGLHHHNLAAVVEFIHTATLLHDDVVDESELRRNQATANALFGNAASVLVGDFLYSRAFQMMVEVGNMRVMEVLADATNTIAEGEVLQLLNCRDPDVEEENYLQVIRFKTAKLFEAAARLGAILGGATPAEEEALAAYGMHLGTAFQLVDDLLDYSGNDQDTGKNLGDDLAEGKPTLPLIFAMRSGIPEQVDTVRHAIETGGKDGFEPILKIIQESGALDYAKQCAQNEANMAISAITAIRDSIYKQCLLELAEFAITRNY”, which “soluble on expression in E. coli” value is on record?
**A.** not soluble

**Q.** Which “soluble on expression in E. coli” value does the source give for “MGSDKIHHHHHHMKLYKLLILDIDGTLRDEVYGIPESAKHAIRLCQKNHCSVVICTGRSMGTIQDDVLSLGVDGYIAGGGNYIQYHGELLYNQSFNQRLIKEVVCLLKKREVAFSIESQEKVFMNQKAKEIFETMNQLKGTNSCINKQHIQEKITYENNIEEYKSQDIHKICLWSNEKVFDEVKDILQDKMELAQRDISSQYYEIIQKDFHKGKAIKRLQERLGVTQKETICFGDGQNDIVMFQASDVTIAMKNSHQQLKDIATSICEDIFDNGIYKELKRRNII” here?
**A.** not soluble

**Q.** With “MSLTSKPYIMGVDIGTSSTKAVLFNQRGEVIFRQATHYELITDETGKAEESPTEIFDAVLTSIQAVMKNINTEELAGISFSSAMHSLIMVGSNGELLTECITWADGRSSETLEKVKRDNYLFQLYEATGTPIHPMSPFAKICWLKEEKPTLFKRTEKFVDIKSYILYRLFGVWVMDESLASGTGLYNIMEHDWEFEAMEIVKLTPDFLPKVVPETYQLAGVKKEYAELMGIPENLPFIIGGSDGALANIGIQATGQNDVTITVGTSGAVRKLTDQFQIDSRGRTFCYGAGDGYFIAGGAVNNGGKVVEWGLQQFGSEAEISRRDFASFIAKIEEVPPGAAGLLFQPYLLGERAPFWTNDIRGGFVGLTINHTKAHFIRAILEGVAFNLAEVYEAVSAPDDIIYVTGGISAHDAWCKLLADILNREIRVPHTIEGSSLGAAIIGMRSLGILKDLNLKHTLPIKAVYHPSENVLKYAELRLIFKQVTTQLMSSYSQLNSWQKKFDINSEGHHHHHH” as the sequence, how does the “soluble on expression in E. coli” value read?
**A.** soluble

**Q.** With “GMEFYEVIKKRKSIKKFEQTAIDRDKLLKIIDMAMRAPSWKNKTPYKFIVVESDKLKLDIANAIENKTSAASEAVLNSPMTIVAVANPEESGDVSGKEIYLIDTAIAMEHIVLGATDEGYGTCWIAAFNENKIKEALKIPDNLRVVALTPLGVPKDSAEDEPHHPKKDMDEYLYIDKWGTSFMESNVKILEKN” as the sequence, how does the “soluble on expression in E. coli” value read?
**A.** soluble

**Q.** With “MDPQILSPASYGNRAPQKKKKPKKPSAELPSRHSTRSDENSGKIEPGTEHMSSGQRKNLKLLKSDERARVIDARAVLDSAQKHLATLLKNGGKGGDEDIDELIFNREAEIPVEPIRKGKCPFYFDQRILTIVGRVGEVPVQHWFAIYNTSPFPYMFKIKCSDNSLFKIHPVCGVLDALCDAEISVTFVGAHVPPRYTSYLSIHSMLPDPLFLDVPQAFRNRRNFETRQRLYVEYAYHEDPILVTAEEDRDQFHFQYMRKVLKTDEAESFAKKLKAEKVERLDKKIDEIKARKIDEKLIEREIVRAESPKFEPKTRRLRVEKFFNQQKQKKENEWMEKLKVDASRKPMLSHWDLEMKNIKAEKKKIGAVKKKIKAEKKEDKKKPMGWMSTLKMERDERRTKRKEEEEKKKKDAEEKKKKDAEEKKKKDAEDEKKKDAGDEKKKDAEDEKKKDAGDEKKKKDAGEKKKKDAEEKKKVAEEEKKS” as the sequence, how does the “soluble on expression in E. coli” value read?
**A.** soluble

**Q.** For “MRRFTAFVLGLCLSLPVLAEQVQRFGDLDVHYNVFNSSFLQPNVASAVGLVRSKAQGVINVVPMEKGKPVEAAVTGSAKDLTGKVIPLEFRRVSEEGAIYNLAQFPISQRETLVFTIKVEAKGEPAQTFSFNKEIFPDE”, which “soluble on expression in E. coli” value is on record?
**A.** not soluble

**Q.** Which “soluble on expression in E. coli” value does the source give for “MGLFTTRQLLGYTEQKVKFNPLFLSLFFRRTVTFPTQEVMLDKITGKTPIAAYVSPVVGGKVLRNRGGETRVLRPGYVKPKHEVNYAQVVERLPGEDPARLNDPAYRRLRILTDNLKQEEKAIVQVEEMQAVSAVLNGKYTMQGEQFDTVEVDFGRSAGNNIIQATGKKWSEQDRETFDPTYDLDMYCDQASGLINIAVMDGKVWRLLNGFKLFREKLDTRRGSNSQLETAVKDLGAVVSFKGYYGDLAIVVAKTSYVADNGTEKRYLPEGTLVLGNTAAEGIRCYGAIQDSQALAEGIVAATRYPKHWLTVGDPANEYTMTQSAPLMVLPDPDEFVIVTVG” here?
**A.** not soluble

**Q.** Which “soluble on expression in E. coli” value does the source give for “MKKSSEVMHQACDACRKKKWKCSKTVPTCTNCLKYNLDCVYSPQVVRTPLTRAHLTEMENR” here?
**A.** soluble

**Q.** For “MSIINDENGRGYKVHLCKTNIAQNNNKFYDMELLDEGGDFIVKLINGRIGYRGVTQLKDFDDLDRAKKFFESKFYEKTHLHWEERDDEPVPNKYAVVELATNARQTEKEVKKEEPEPEPKVDEKNTRGRKKRGIVKEKKEIKKEEEPVEEVNEKLKELMKCICDEDVHLGLLKQLKFNEAFGRPIDCLSLAQLTTGYEILSKIEESIGGKSARRSTRGRPRVADRVLAVKSDGPSLHDINKYYSLIPHSFGFCVPPKIDSHAKIQAERELLDALKGSIEASLELKDLKKTASSKDIYQRLYERLPCHLEPVSEEIAGKIGDCLAMRGPTHCYKLSLIDAFELKDPNEIPTEAPVEVQEVPKKRGRKSTKTAAPTVPPPTTKRLLWHGTRVTNVFSILMNGLQFPVGDRCGLMFGNGVYFANVPTKSANYCCPEASKRVFMLLCEVETANPLVLYESEIDADEKMEKAKKTSVYAAGKHTPRDTVEINGIPAFKSNLETIEEETRLLYDEYVMFNKEHFKIKYVVEVKVDRLTAKEMMA”, which “soluble on expression in E. coli” value is on record?
**A.** not soluble
